± gives the standard deviation.
Assay: protein stability index of a GFP-peptide fusion (GPS, HEK-293T) (PSI 1-6); higher = more stable
[1] = treatment: DMSO, c terminus: a fixed tail appended
[2] = treatment: MLN4924 1 uM, 8 h, c terminus: a fixed tail appended
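Also: 24-mer peptide tiles fused after GFP, lentivirally expressed, FACS-sorted into six equal bins by GFP/DsRed ratio, decoded by Illumina sequencing, PSI is the read-weighted mean bin number.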

| Sequence | protein stability index [1] | protein stability index [2] | protein stability index (treatment: DMSO, c terminus: native) | protein stability index (treatment: MLN4924 1 uM, 8 h, c terminus: native) |
| --- | --- | --- | --- | --- |
| NQSRCEMKTFVSPEAISPDLVKKI [TRIM15] | 3.98 ± 0.3 | 4.14 ± 0.37 |  |  |
| NSGTDQEQIHLLLSSQCFSNISRP [M1AP] | 2.98 ± 0.21 | 3.18 ± 0.27 |  |  |
| NTVLRFLDLKGNNLRAAGAEALGK [LRRC45] | 3.31 ± 0.27 | 3.28 ± 0.25 |  |  |
| NVYHSYDLPWFRTLSWYFLLCVNY [CDS2] | 2.93 ± 0.23 | 2.98 ± 0.28 |  |  |
| NYVLEEVDEAAAESPSFLSLRKGA [NCK2] | 4.75 ± 0.2 | 4.83 ± 0.13 |  |  |
| PADALQYLLQFARKPVEAESVEGV [INTS4] | 2.9 ± 0.29 | 2.98 ± 0.41 |  |  |
| PAFDALGQLTGGYKPNPQIYVKLI [OAS1] | 2.34 ± 0.14 | 2.15 ± 0.26 |  |  |
| PAFLKWLSLASLLVYVAAFSIGLG [SLC2A12] | 3.28 ± 0.15 | 3.48 ± 0.79 |  |  |
| PALKECIQGADTIRCVYILDPWFA [CRY1] | 2.95 ± 0.55 | 2.73 ± 0.74 |  |  |
| PAMVRISKPKTFQAYLDDCHRRYS [YPEL3] | 2.96 ± 0.11 | 2.92 ± 0.17 |  |  |
| PAPASPAISVVGVSAGGHTLSRPP [TFE3] | 4.37 ± 0.28 | 4.38 ± 0.25 |  |  |
| PDGLMYQKFRNQFLSFSMYQSFVQ [TMEM120A] | 2.68 ± 0.59 | 2.33 ± 0.76 |  |  |
| PDLPFQIKPSENHYSLLTSQPLDR [PCDHGC5] | 3.97 ± 0.22 | 4.13 ± 0.14 |  |  |
| PEITTEDIKAAFAPFGRISDARVV [TIA1] | 3.34 ± 0.21 | 3.3 ± 0.13 |  |  |
| PEKHQVPEKLIWGDQDPLSKIPFK [WDR88] | 3.72 ± 0.22 | 4.26 ± 0.38 |  |  |
| PEPLFLGEEDFSLSATIGSILREL [SERTAD3] | 2.6 ± 0.12 | 2.57 ± 0.31 |  |  |
| PEQLVLTLLEAEPPHVLISRPSAP [ESR2] | 2.89 ± 0.31 | 3.1 ± 0.48 |  |  |
| PESQMCRKFSRECEDQKQIKKPES [NEUROD6] | 5.09 ± 0.38 | 5.31 ± 0.22 |  |  |
| PETQARLEALLEAAGIGKLSTADG [ANKRD17] | 2.95 ± 0.32 | 3.18 ± 0.42 |  |  |
| PFKRFLRKKSKPKKCVKKFVEYCD [SMOC2] | 2.45 ± 0.091 | 2.59 ± 0.26 |  |  |
| PGLLEEDNQWMTQINRLQKLIDRL [NECAB1] | 2.51 ± 0.23 | 2.88 ± 0.2 |  |  |
| PGPERLFDSHRLPGDCFLLLVLLL [AUP1] | 2.46 ± 0.54 | 2.14 ± 0.59 |  |  |
| PITAHAEVEVVEEAKCCCFFKRKR [CSNK1G1] | 2.96 ± 0.73 | 3.23 ± 1.2 |  |  |

| Sequence | protein stability index [1] | protein stability index [2] | protein stability index (treatment: DMSO, c terminus: native) | protein stability index (treatment: MLN4924 1 uM, 8 h, c terminus: native) |
| --- | --- | --- | --- | --- |
| PLAEQTPLTLQSQPKEPQLTCDSA [ZSCAN9] | 5.25 ± 0.28 | 5.35 ± 0.36 |  |  |
| PLLCPSYQSYFKTIEELQQKILCA [KRT34] | 4 ± 0.19 |  |  |  |
| PLLLLCNIKPRRYLTVVFEHDAWF [SLC29A1] | 3.09 ± 0.71 | 3.06 ± 0.52 |  |  |
| PLLMNRQRVPKVLVENAKNFPQCV [EFHC1] | 2.46 ± 0.44 | 2.47 ± 0.072 |  |  |
| PLVGQDEFFLEQTKKKGVKRPARL [NOP53] | 4.18 ± 0.41 | 4.2 ± 0.19 |  |  |
| PMQESKAEGNNQAPGEEEEEEEEA [CHGA] | 5.49 ± 0.39 | 5.74 ± 0.15 |  |  |
| PNRAGAPGESLECPAELRPQVPQP [TRAF3IP2] | 4.97 ± 0.16 | 5.07 ± 0.26 |  |  |
| PPAEEAEQPGALAREFLAAMEPEP [FKBP8] | 5.49 ± 0.45 | 5.57 ± 0.072 |  |  |
| PPAPAPLPPPSAPSLQPSRKLSPT [SCAMP3] | 5.34 ± 0.25 | 5.32 ± 0.12 |  |  |
| PPGLPAETIKDLMRQFLRGLDFLH [CDK4] | 2.21 ± 0.075 | 2.57 ± 0.7 |  |  |
| PPGYSAWIKEEAAERYLYFPNWAM [SLC6A17] | 2.33 ± 0.28 | 2.11 ± 0.4 |  |  |
| PPPPYEAVVSQMDQEQGSSFQMSE [FAM189A2] | 5.54 ± 0.27 | 5.43 ± 0.096 |  |  |
| PPTLQEAGLSHTEVLFVQDLTDE [FAF2] |  |  | 4.88 ± 0.25 | 4.92 ± 0.15 |
| PQEEIATKKLRLTKPSKSAALHID [INTS4] | 4.36 ± 0.047 | 4.46 ± 0.1 |  |  |
| PQKLLGCSPALKRSHSDSLDHDIF [CDC25A] | 3.12 ± 0.28 | 3.24 ± 0.33 |  |  |
| PQNGSETGWARKGLGNTWPGASGS [ATP23] | 4.32 ± 0.24 | 4.33 ± 0.34 |  |  |
| PQQHFLEEKQASLWVQGDIFRSKL [CDC14A] | 3.12 ± 0.18 | 3.14 ± 0.28 |  |  |
| PQTLIMAYDYAKEVNSAEELEGLI [FEM1C] | 3.75 ± 0.32 | 3.56 ± 0.27 |  |  |
| PRAAGTDGSDFQHRERVAMHYQMS [JAGN1] | 3.96 ± 0.25 | 4.06 ± 0.18 |  |  |
| PRLCYLVKEGGSYGFSLKTVQGKK [PDZK1] | 3.02 ± 0.12 |  |  |  |
| PRRLGRLKYQAPDIDVQLSSELTD [NOP53] | 4.11 ± 0.48 | 4.14 ± 0.34 |  |  |
| PSAAGAPASAPGEPRQRRLLLLDL [ANKRD9] | 2.86 ± 0.29 | 3.11 ± 0.4 |  |  |
| PSKVEVTEKTTTVLSESSGPSNTS [C2CD2L] | 5.43 ± 0.095 | 5.44 ± 0.23 |  |  |

| Sequence | protein stability index [1] | protein stability index [2] | protein stability index (treatment: DMSO, c terminus: native) | protein stability index (treatment: MLN4924 1 uM, 8 h, c terminus: native) |
| --- | --- | --- | --- | --- |
| PSPGVLCGSARPKPYDPPGEKMVA [ATF4] | 4.37 ± 0.28 | 4.6 ± 0.23 |  |  |
| PSRGGNQLPRPPIVGGNKGRSGPL [WAS] | 4.6 ± 0.07 | 4.73 ± 0.22 |  |  |
| PSVCSENIHPQVLLPDQARGEVPW [ZNF263] | 4.19 ± 0.22 | 4.34 ± 0.37 |  |  |
| PTMAPAGQPAPVSMVPPSPAMAAS [SNAP91] | 4.75 ± 0.22 | 4.89 ± 0.28 |  |  |
| PTVTTSWQSESLPVSLSASQSWHT [BCL2L13] | 3.25 ± 0.31 | 3.12 ± 0.22 |  |  |
| PWLWSEQQVCQWLLWATNEFSLVN [ETS2] | 2.76 ± 0.47 | 2.42 ± 0.46 |  |  |
| PWSPCSARFITDFLDNGYGHCLLD [ADAMTS4] | 2.05 ± 0.21 | 2.21 ± 0.41 |  |  |
| PYFSPSASFHHKLHHKRLAKECML [CBY2] | 2.56 ± 0.11 | 2.5 ± 0.32 |  |  |
| PYMNPSPFTVSPNTHVSQVFNLFR [CLCN6] | 2.64 ± 0.16 | 2.73 ± 0.2 |  |  |
| PYQALRLWARGTWTQATGLGCALL [SOAT2] | 2.09 ± 0.46 | 2.05 ± 0.3 |  |  |
| PYQCSQCSKSYSRRSFLIEHQRSH [ZSCAN9] | 4.3 ± 0.2 | 4.45 ± 0.43 |  |  |
| QAIYVIDFFWNETWYLKTIDICHD [DHCR7] | 3.14 ± 0.37 | 3.25 ± 0.4 |  |  |
| QARTQKLQGLIPGARYEVTVVSVR [TNXB] |  | 2.22 ± 0.42 |  |  |
| QASCDEAHKMKFSDLFSLAEEYED [INTS3] | 4.61 ± 0.23 | 4.77 ± 0.27 |  |  |
| QATKASLKERFAFLFNSELLSDVR [BTBD1] | 2.55 ± 0.22 | 2.67 ± 0.34 |  |  |
| QCGPQTGLQSPGTLQPPEFLYSHG [TBX5] | 3.41 ± 0.25 | 3.37 ± 0.34 |  |  |
| QEELNRKAEELDRRERELQHAALG [SCAMP3] | 5.39 ± 0.21 | 5.24 ± 0.55 |  |  |
| QEIMEKYNIKLKWTNQQKLYSRTG [CFHR2] | 2.45 ± 0.32 | 2.66 ± 0.35 |  |  |
| QELLERGLLQLDHRGLRCSWEGLA [RSAD1] | 2.31 ± 0.2 | 2.6 ± 0.23 |  |  |
| QEVSSVRSLSSTGSLPSHAPPSED [DLC1] | 5.42 ± 0.22 | 5.44 ± 0.24 |  |  |
| QEVVELPVTERQIEREHLIQLRRW [TBC1D10A] | 4.05 ± 0.25 | 4.22 ± 0.2 |  |  |
| QEYESIDPGQQFTWEHSNLEVNKP [PTPRD] | 4.94 ± 0.1 | 4.93 ± 0.069 |  |  |
| QFFTKGYQETISDVLNDAIFDEDH [GCH1] | 4.01 ± 0.33 | 3.92 ± 0.07 |  |  |

| Sequence | protein stability index [1] | protein stability index [2] | protein stability index (treatment: DMSO, c terminus: native) | protein stability index (treatment: MLN4924 1 uM, 8 h, c terminus: native) |
| --- | --- | --- | --- | --- |
| QFTSSSSIKGSSGLGGGSSRTSCR [KRT17] | 4.34 ± 0.12 | 4.33 ± 0.26 |  |  |
| QHLGEYENVLAALEGLNLSILKAM [NECAB1] | 2.25 ± 0.24 | 2.38 ± 0.23 |  |  |
| QKELKKAQMAKAAAEERALFTDRM [WEE1] | 4.69 ± 0.19 | 4.67 ± 0.16 |  |  |
| QKISLLHSCTCVLYTPSNEHFGIV [ALG2] | 2.55 ± 0.84 | 2.61 ± 0.8 |  |  |
| QKLETDAMFRLEHGEADRSTLKKA [YJU2B] | 5.22 ± 0.22 | 5.03 ± 0.14 |  |  |
| QKSPWCEARSLEHTLPVNRETLKR [ESR2] | 4.23 ± 0.16 | 4.41 ± 0.21 |  |  |
| QKTRLLEDSVSRLEKEIEVLERGD [PALM] | 4.96 ± 0.069 | 5.03 ± 0.27 |  |  |
| QLGTAGQGFSYSKSNGRGGSQAGG [MYOZ1] | 4.54 ± 0.2 | 4.93 ± 0.71 |  |  |
| QLHKPLAEGTPRSNHSAQDSAVEN [IKZF1] | 5.35 ± 0.35 | 5.39 ± 0.3 |  |  |
| QLLLIKALQEKLWNVAAPLYLKQS [INTS4] | 3.14 ± 0.31 | 2.89 ± 0.18 |  |  |
| QMVSAIVRTMQNTNDVETARCTAG [CTNNB1] | 2.87 ± 0.12 | 2.93 ± 0.3 |  |  |
| QNIQSWSNHSWNTQTWCTQSWNNQ [NANOGP8] | 2.53 ± 0.37 | 2.61 ± 0.24 |  |  |
| QPELPCAMAMGTPSTTERISTSGQ [PXN] | 4.72 ± 0.12 | 4.9 ± 0.17 |  |  |
| QPHLPLLSTLAGIRVMVHGRNHTP [SCNN1D] | 2.52 ± 0.24 | 2.62 ± 0.26 |  |  |
| QPSDRLMTEKQQEEAEWESINVLL [CEP70] | 4.38 ± 0.11 | 4.33 ± 0.12 |  |  |
| QQESESEIDSVPKTQSELASESEH [MIA2] | 5.44 ± 0.17 | 5.62 ± 0.15 |  |  |
| QQIGDAIRMIVRGTLGSCSSSSEC [PLK2] | 2.1 ± 0.23 | 2.08 ± 0.39 |  |  |
| QQLRRGRYVEFNLLYDRGTKFGLF [CPOX] | 2.52 ± 0.51 | 2.56 ± 0.36 |  |  |
| QRARKEREKEDYLHLKRQPKRRWL [RHOBTB2] | 4.05 ± 0.23 | 4.16 ± 0.23 |  |  |
| QRFRLDNLLNMAYGVKSPLSLIAR [ELAVL3] | 2.05 ± 0.14 | 2.19 ± 0.18 |  |  |
| QRQDPAAAQEGEDEGASAGQGPKP [GAGE1] | 5.62 ± 0.13 | 5.7 ± 0.14 |  |  |

From the supplement of paper PMC10567573
